Assay results reported in patent publication US20220127355A1 (INTEGRAL MOLECULAR, published 2022).
Positions count from the first letter of the chain named.

Columns and labels:
P74A = target: T1, P74A; test: Shotgun Mutagenesis epitope mapping; mean (range), % of wild-type Claudin 6
T1 construct: Shotgun Mutagenesis mutant; also called Claudin 6 P74A
T1 chain: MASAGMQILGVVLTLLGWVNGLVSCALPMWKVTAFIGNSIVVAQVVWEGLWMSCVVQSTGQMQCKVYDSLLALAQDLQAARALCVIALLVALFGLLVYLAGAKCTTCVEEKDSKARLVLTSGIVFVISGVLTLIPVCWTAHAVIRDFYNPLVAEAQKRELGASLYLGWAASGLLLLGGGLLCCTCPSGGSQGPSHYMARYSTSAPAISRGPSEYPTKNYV

D76A = target: T2, D76A; test: as above
T2 construct: Shotgun Mutagenesis mutant; also called Claudin 6 D76A
T2 chain: T1 chain with A74P, D76A

V152A = target: T3, V152A; test: as above
T3 construct: Shotgun Mutagenesis mutant; also called Claudin 6 V152A
T3 chain: T1 chain with A74P, V152A

Q156A = target: T4, Q156A; test: as above
T4 construct: Shotgun Mutagenesis mutant; also called Claudin 6 Q156A
T4 chain: T1 chain with A74P, Q156A

Q156L = target: T5, Q156L; test: as above
T5 construct: Shotgun Mutagenesis mutant; also called Claudin 6 Q156L
T5 chain: T1 chain with A74P, Q156L

T33A = target: T6, T33A; test: as above
T6 construct: Shotgun Mutagenesis mutant; also called Claudin 6 T33A
T6 chain: T1 chain with T33A, A74P

E48A = target: T7, E48A; test: as above
T7 construct: Shotgun Mutagenesis mutant; also called Claudin 6 E48A
T7 chain: T1 chain with E48A, A74P

Y67A = target: T8, Y67A; test: as above
T8 construct: Shotgun Mutagenesis mutant; also called Claudin 6 Y67A
T8 chain: T1 chain with Y67A, A74P

D68A = target: T9, D68A; test: as above
T9 construct: Shotgun Mutagenesis mutant; also called Claudin 6 D68A
T9 chain: T1 chain with D68A, A74P

Claudin 3 = target: T10, Claudin 3 (UniProt O15551 1-220); test: flow cytometry, HEK-293T cells transiently transfected with the indicated claudin; pUC19 = empty vector control
T10 construct: also called CLDN3
T10 sequence (looked up): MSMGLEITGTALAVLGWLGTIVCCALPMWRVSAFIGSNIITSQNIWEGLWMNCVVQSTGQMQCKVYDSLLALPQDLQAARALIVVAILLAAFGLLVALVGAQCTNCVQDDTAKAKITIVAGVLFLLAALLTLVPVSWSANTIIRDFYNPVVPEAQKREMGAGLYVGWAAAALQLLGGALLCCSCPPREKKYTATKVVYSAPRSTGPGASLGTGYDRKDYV
Description: FIG. 2 illustrates the results of a binding assay showing that Claudin 6 MAbs bind to human Claudin 6 preferentially over other Claudin proteins. Human embryonic kidney 293T (HEK-293T) cells were transiently transfected with DNA for the indicated Claudin protein or empty vector along with GFP (pUC) for 22 hours.

B1: IM173 (antibody, V domains shown)
VH: AVTLDESGGGLQTPGGALSLVCKASGFTFSSYSMFWVRRAPGKGLEWVAGIDSGSTTFYGSAVKGRATISRDNGQSTVRLQLNNLRAEDTATYYCAKDAYGYCGWSGCSADSIDAWGHGTEVIVSS
VL: ALTQPSSVSANPGGTVEITCSGGNNYYGWYQQKSPGSAPVTVIYYNDKRPSDIPSRFSGSKSGSTGTLTITGVQADDEAVYFCGGWDSSGGIFGAGTTLTVL
notes: Detected with anti-human IgG Fc secondary
- Binding Reactivity (% WT) (P74A): 147 % WT
- Binding Reactivity (% WT) (D76A): 76.8 % WT
- Binding Reactivity (% WT) (V152A): 58.2 % WT
- Binding Reactivity (% WT) (Q156A): 0.9 % WT
- Binding Reactivity (% WT) (Q156L): 10.7 % WT
- Binding Reactivity (% WT) (T33A): 116 % WT
- Binding Reactivity (% WT) (E48A): -0.5 % WT
- Binding Reactivity (% WT) (Y67A): 28.8 % WT
- Binding Reactivity (% WT) (D68A): 89.6 % WT
- binding result (Claudin 3): no binding (tested: log [mAb] about -7.2 M)

B2: IM171 (antibody, V domains shown)
VH: AVTLDESGGGLQTPGGALSLVCKASGFDFSSYAMNWVRQAPGKGLEWVAGIGSTGSSTGYGPAVKGRATISRDNGQSTLRLQLNNLRAEDTAIYYCAKSVGNGNSWSGYIATSIDAWGHGTEVIVSS
VL: ALTQPSSVSANLGGTVKLTCSGGSSGYGWYQQKSPGSAPVTVIYSNDKRPSDIPSRFSGSLSGSTGTLTITGVQADDEAVYFCGSTDNSYVGIFGAGTTLTVL
notes: Detected with anti-human IgG Fc secondary; also called LM171
- Binding Reactivity (% WT) (P74A): 37.5 % WT
- Binding Reactivity (% WT) (D76A): 6 % WT
- Binding Reactivity (% WT) (V152A): 129 % WT
- Binding Reactivity (% WT) (Q156A): 102 % WT
- Binding Reactivity (% WT) (Q156L): 10 % WT
- Binding Reactivity (% WT) (T33A): 22.8 % WT
- Binding Reactivity (% WT) (E48A): 0.9 % WT
- Binding Reactivity (% WT) (Y67A): 97.2 % WT
- Binding Reactivity (% WT) (D68A): 93.7 % WT
- binding result (Claudin 3): no binding (tested: log [mAb] about -7.2 M)
